# From IntAct's records for PubMed 24970085
# B1: Lysosome-associated membrane glycoprotein 1 (Homo sapiens), P11279 (parent)
# chain: MAAPGSARRPLLLLLLLLLLGLMHCASAAMFMVKNGNGTACIMANFSAAFSVNYDTKSGPKNMTFDLPSDATVVLNRSSCGKENTSDPSLVIAFGRGHTLTLNFTRNATRYSVQLMSFVYNLSDTHLFPNASSKEIKTVESITDIRADIDKKYRCVSGTQVHMNNVTVTLHDATIQAYLSNSSFSRGETRCEQDRPSPTTAPPAPPSPSPSPVPKSPSVDKYNVSGTNGTCLLASMGLQLNLTYERKDNTTVTRLLNINPNKTSASGSCGAHLVTLELHSEGTTVLLFQFGMNASSSRFFLQGIQLNTILPDARDPAFKAANGSLRALQATVGNSYKCNAEEHVRVTKAFSVNIFKVWVQAFKVEGGQFGSVEECLLDENSMLIPIAVGGALAGLVLIVLIAYLVGRKRSHAGYQTI
# Variants of: B1
# Settings: with glyc_lassj GPC
row,Variant,effect of a mutation on the interaction
1,MAAPGSARRPLLLLLLLLLLGLMHCASAAMFMVKNGNGTACIMANFSAAFSVNYDTKSGPKNMTFDLPSDATVVLSRSSCGKENTSDPSLVIAFGRGHTLTLNFTRNATRYSVQLMSFVYNLSDTHLFPNASSKEIKTVESITDIRADIDKKYRCVSGTQVHMNNVTVTLHDATIQAYLSNSSFSRGETRCEQDRPSPTTAPPAPPSPSPSPVPKSPSVDKYNVSGTNGTCLLASMGLQLNLTYERKDNTTVTRLLNINPNKTSASGSCGAHLVTLELHSEGTTVLLFQFGMNASSSRFFLQGIQLNTILPDARDPAFKAANGSLRALQATVGNSYKCNAEEHVRVTKAFSVNIFKVWVQAFKVEGGQFGSVEECLLDENSMLIPIAVGGALAGLVLIVLIAYLVGRKRSHAGYQTI [N76S],disrupting interaction
